For this assay, the target named is IL-11 (UniProt P20809). In words: ELISA on IL-11, positive control antibody ab130083. For orientation: An ELISA detects its analyte on a solid surface through an enzyme-linked reagent.
Chain of IL-11 (P20809 22-199 limits assumed): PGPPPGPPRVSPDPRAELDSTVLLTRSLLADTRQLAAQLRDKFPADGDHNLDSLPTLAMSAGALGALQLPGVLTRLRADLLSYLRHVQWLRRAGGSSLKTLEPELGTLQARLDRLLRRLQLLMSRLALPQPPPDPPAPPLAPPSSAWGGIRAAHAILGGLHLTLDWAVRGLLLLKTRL

Take 6D9A1 (Abcam, ab130083) (antibody): the OD(450 nm) value turned out to be 3.62 OD450.

The values above are taken from patent US20250002574A1.
